System: CCCC(=O)Oc1ccc([N+](=O)[O-])cc1
Experiment: purified protein
Settings: 37 °C, semi-purified His-tagged enzyme, methods state optimal assay conditions (pH 7)

## LipJ (Bacillus sp. (in: firmicutes))
  Km: 1700 µM

Reference: paper PMC5526573, “Bacillus sp. JR3 esterase LipJ: A new mesophilic enzyme showing traces of a thermophilic past” (PLoS ONE, 2017)
